Measured values taken from paper PMC3792052, “Structural Analysis of Intermolecular Interactions in the Kinesin Adaptor Complex Fasciculation and Elongation Protein Zeta 1/ Short Coiled-Coil Protein (FEZ1/SCOCO)” (PLoS ONE, 2013).

Assays:
[1] = target: 6xHis-FEZ1 (1-392) (human) (UniProt Q99689); assay: SAXS; complex formed by lysing the two E. coli pellets together, two-step co-affinity purification (6xHis, then GST); purified complex at 1.10 and 0.34 mg/mL in PBS, 20 °C; mass from I(0) against BSA
[2] = target: the molecule itself; assay: as above

Molecule	stoichiometry N (GST-SCOCO per 6xHis-FEZ1 (2:2)) [1]	stoichiometry N [2]
GST-SCOCO (2-82) (natural protein)	1	
6xHis-FEZ1 (1-392) (natural protein, human, UniProt Q99689 1-392, looked up, Predicted mass of the tagged protein printed as 48.8 KDa; also called fasciculation and elongation protein zeta 1; source: for SAXS cells lysed together with GST-SCOCO cells and co-purified (HiTrap chelating, then GST-Trap)) MEAPLVSLDEEFEDLRPSCSEDPEEKPQCFYGSSPHHLEDPSLSELENFSSEIISFKSMEDLVNEFDEKLNVCFRNYNAKTENLAPVKNQLQIQEEEETLQDEEVWDALTDNYIPSLSEDWRDPNIEALNGNCSDTEIHEKEEEEFNEKSENDSGINEEPLLTADQVIEEIEEMMQNSPDPEEEEEVLEEEDGGETSSQADSVLLQEMQALTQTFNNNWSYEGLRHMSGSELTELLDQVEGAIRDFSEELVQQLARRDELEFEKEVKNSFITVLIEVQNKQKEQRELMKKRRKEKGLSLQSSRIEKGNQMPLKRFSMEGISNILQSGIRQTFGSSGTDKQYLNTVIPYEKKASPPSVEDLQMLTNILFAMKEDNEKVPTLLTDYILKVLCPT		2
